The results in this text go back to patent publication US20060177907A1 (University of California, published 2006).

To fix the notation:
B1: hrg, 60-residue EGF-like domain of human heregulin beta1 (residues 177-237) (ligand)
chain: SHLVKCAEKEKTFCVNGGECFMVKDLSNPSRYLCKCPNEFTGDRCQNYVMASFYKHLGIEF
notes: also called I^25 hrg
B2: HER3-ECD^I-II (residues 20-329), recombinant domains I and II of HER3 expressed in Drosophila S2 cells (receptor, not shown: small tags and cut ends)
chain: SEVGNSQAVCPGTLNGLSVTGDAENQYQTLYKLYERCEVVMGNLEIVLTGHNADLSFLQWIREVTGYVLVAMNEFSTLPLPNLRVVRGTQVYDGKFAIFVMLNYNTNSSHALRQLRLTQLTEILSGGVYIEKNDKLCHMDTIDWRDIVRDRDAEIVVKDNGRSCPPCHEVCKGRCWGPGSEDCQTLTKTICAPQCNGHCFGPNPNQCCHDECAGGCSGPQDTDCFACRHFNDSGACVPRCPQPLVYNKLTFQLEPNPHTKYQYGGVCVASCPHNFVVDQTSCVRACPPDKMEVDKNGLKMCEPCGGLCPK
notes: Monomer by light scattering and ultracentrifugation; The N-terminal Drosophila leader comes from the vector; the protein is secreted; also called HER3^I-II; H3 I-II
B3: trx-hrg, thioredoxin-heregulin fusion with a C-terminal His and S-tag (ligand)
chain: B1 chain
notes: Made as in Landgraf et al. 1998; also called S-tagged hrg; immobilized hrg; not shown: thioredoxin; C-terminal His tag and S-tag
B4: HER3^I-II N44A (receptor, not shown: small tags and cut ends)
chain: B2 chain with N25A
notes: also called H3 I-II Mutant N44A
B5: HER3^I-II V110A (receptor, not shown: small tags and cut ends)
chain: B2 chain with V91A
notes: also called H3^I-II V110A

The target of experiment [1] is HER3^II-CTD (residues 184-1342), transiently expressed on COS 7 cells (human, UniProt P21860 184-1342). The experiment in a line: specific binding of radio-iodinated hrg to COS 7 cells transiently expressing the HER3 construct.
For experiment [2], the target named is HER3^FL E64A (residues 20-1342 with a mutation of E64A), transiently expressed on COS 7 cells (human, UniProt P21860 20-1342). The description is as above.
Experiment [3] has as its target T1, HER3^I-IV E64A (human, UniProt P21860 20-643).
T1 construct: also called H3^I-IV E64A
The experiment in a line: native gel mobility shift. On the procedure: (§1) FIG. 12. […] HER3^I-IV and the HER3^I-IV mutants were analyzed on a native Phast gel (10-15%) in the absence (−) and presence (+) of equimolar hrg. The HER3^{I-IV E64A} was also analyzed in the absence (lane 2) and presence (lane 4) of hrg. Formation of a hrg-HER3^I-IV complex is observed with HER3^I-IV, but not with […], B, HER3^I-IV and HER3^{I-IV E64A} were analyzed in a “pull down assay” in which S-tagged hrg was immobilized on S-protein resin (lanes 4-9) and HER3^I-IV could be specifically eluted with 1 μM hrg and detergent (lane 6 and 8), but HER3^{I-IV E64A} could not be eluted with PBS or 1 μM hrg (lanes 5 and 7). A small amount of HER3^{I-IV E64A} could be eluted with detergent (lane 9) which was probably due to some binding or non-specific interaction.
To determine the effects of cleavage of HER3^I-IV on its ability to bind hrg, a gel mobility shift assay was performed. […] (FIG. 12A).

The target of experiment [4] is T2, HER3-ECD^I-IV, soluble extracellular domains of recombinant HER3 purified from Chinese hamster ovary cells (human, UniProt P21860 20-643).
T2 construct: also called nonproteolyzed HER3-ECD^I-IV
The experiment in a line: method not given; compared with the Kd of HER3-ECD^I-II (68 nM); form of hrg not stated.

In experiment [5] the target is T2, HER3-ECD^I-IV, soluble extracellular …. The experiment in a line: method not given; given as the reference for the SPR value of HER3-ECD^I-II (68 nM, trx-hrg immobilized); form of hrg not stated.
The target of experiment [6] is B3. The experiment in a line: SPR, trx-hrg immobilized (68 nM) compared with HER3-ECD^I-IV (2.3 nM). On the procedure:
(§2) Trx-hrg (13 μM) in MES buffer (100 mM pH 6.0) was immobilized on a BIAcore CM5 chip using standard N-hydroxysuccinimide/1-ethyl-3-(3-dimethylaminopropyl)carbodiimide amine-coupling chemistry. The surface of the chip was blocked with ethanolamine and could be regenerated with 5.0 M NaCl and washes with running buffer (PBS+surfactant). HER3-ECD^I-II (filtered through a 0.1-μm filter unit (Millipore, Bedford, Mass.)) in running buffer was applied to the chip at various concentrations (in triplicate) to determine the dissociation constant. Data were analyzed with the BIAevaluation software. Competition experiments were carried out using hrg at an equimolar concentration to HER3-ECD^I-II.
(§3) To further confirm that HER3-ECD^I-II binds hrg, we analyzed the interaction by SPR (BIAcore). Trx-hrg fusion protein was immobilized on a BIAcore chip for these measurements. […] This interaction could be inhibited by stoichiometric concentrations of hrg.

Experiment [7] addresses B2. The experiment in a line: SPR (BIAcore), trx-hrg immobilized, HER3-ECD^I-II in solution. On the procedure:
as §2, §3

Experiment [8] concerns the target T1, HER3^I-IV E64A. The experiment in a line: pull-down on trx-hrg-coupled S-protein agarose. On the procedure: as §1
To confirm that HER3^I-IVE64A has decreased binding affinity for hrg, we used a “pull down” assay in which we measured the HER3^I-IV and HER3^I-IVE64A that could be dissociated from immobilized thioredoxin-heregulin (trx-hrg) by the addition of hrg. Using trx-hrg coupled S-protein agarose, HER3^I-IV was eluted with hrg and detergent (FIG. 12B, lanes 6 and 8), but not with PBS (FIG. 12B, lane 4). No HER3^{I-IV E64A} could be recovered by elution with PBS, hrg or detergent (FIG. 12B, lanes 5, 7 and 9).

For another experiment, the target named is T3, HER3^I-II E43A (human, UniProt P21860 20-329).
T3 construct: also called H3 I-II Mutant E43A
The experiment in a line: SPR (BIAcore), immobilized trx-hrg.

The experiment “HER3^I-II V110A” has as its target B5. The experiment in a line: SPR (BIAcore), immobilized trx-hrg.
The experiment “HER3^I-II N44A” deals with B4. The experiment in a line: SPR (BIAcore), immobilized trx-hrg.
The target of a further experiment is T4, HER3^I-II K51A (human, UniProt P21860 20-329).
T4 construct: also called H3^I-II K51A
The experiment in a line: SPR (BIAcore), immobilized trx-hrg.

A further experiment has as its target HER3^I-II V66A (human, UniProt P21860 20-329). The experiment in a line: SPR (BIAcore), immobilized trx-hrg.
Experiment [9] deals with B3. The experiment in a line: SPR (BIAcore), immobilized trx-hrg.
Experiment [10] addresses B3. The experiment in a line: SPR (BIAcore), immobilized trx-hrg.

Residue numbers refer to the chain shown, from its start. Names may count otherwise. Read-outs that look alike come from different tables or passages of the source.

Sequence of HER3^I-II N44A (P21860 20-329 N44A): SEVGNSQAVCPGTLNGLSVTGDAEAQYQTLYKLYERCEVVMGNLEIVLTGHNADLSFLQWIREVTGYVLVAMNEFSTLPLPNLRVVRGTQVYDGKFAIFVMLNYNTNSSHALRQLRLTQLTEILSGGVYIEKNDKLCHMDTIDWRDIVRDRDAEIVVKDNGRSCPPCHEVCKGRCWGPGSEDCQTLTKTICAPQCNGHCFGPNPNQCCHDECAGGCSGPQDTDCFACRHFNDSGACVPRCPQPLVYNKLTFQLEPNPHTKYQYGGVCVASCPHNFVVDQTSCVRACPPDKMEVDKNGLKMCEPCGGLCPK
T3 sequence (P21860 20-329 E43A): as the sequence (P21860 20-329 N44A) above, with E24A, A25N counted along it
Sequence of HER3^II-CTD (residues 184-1342), transiently expressed on COS 7 cells (P21860 184-1342 E560G/E1064G): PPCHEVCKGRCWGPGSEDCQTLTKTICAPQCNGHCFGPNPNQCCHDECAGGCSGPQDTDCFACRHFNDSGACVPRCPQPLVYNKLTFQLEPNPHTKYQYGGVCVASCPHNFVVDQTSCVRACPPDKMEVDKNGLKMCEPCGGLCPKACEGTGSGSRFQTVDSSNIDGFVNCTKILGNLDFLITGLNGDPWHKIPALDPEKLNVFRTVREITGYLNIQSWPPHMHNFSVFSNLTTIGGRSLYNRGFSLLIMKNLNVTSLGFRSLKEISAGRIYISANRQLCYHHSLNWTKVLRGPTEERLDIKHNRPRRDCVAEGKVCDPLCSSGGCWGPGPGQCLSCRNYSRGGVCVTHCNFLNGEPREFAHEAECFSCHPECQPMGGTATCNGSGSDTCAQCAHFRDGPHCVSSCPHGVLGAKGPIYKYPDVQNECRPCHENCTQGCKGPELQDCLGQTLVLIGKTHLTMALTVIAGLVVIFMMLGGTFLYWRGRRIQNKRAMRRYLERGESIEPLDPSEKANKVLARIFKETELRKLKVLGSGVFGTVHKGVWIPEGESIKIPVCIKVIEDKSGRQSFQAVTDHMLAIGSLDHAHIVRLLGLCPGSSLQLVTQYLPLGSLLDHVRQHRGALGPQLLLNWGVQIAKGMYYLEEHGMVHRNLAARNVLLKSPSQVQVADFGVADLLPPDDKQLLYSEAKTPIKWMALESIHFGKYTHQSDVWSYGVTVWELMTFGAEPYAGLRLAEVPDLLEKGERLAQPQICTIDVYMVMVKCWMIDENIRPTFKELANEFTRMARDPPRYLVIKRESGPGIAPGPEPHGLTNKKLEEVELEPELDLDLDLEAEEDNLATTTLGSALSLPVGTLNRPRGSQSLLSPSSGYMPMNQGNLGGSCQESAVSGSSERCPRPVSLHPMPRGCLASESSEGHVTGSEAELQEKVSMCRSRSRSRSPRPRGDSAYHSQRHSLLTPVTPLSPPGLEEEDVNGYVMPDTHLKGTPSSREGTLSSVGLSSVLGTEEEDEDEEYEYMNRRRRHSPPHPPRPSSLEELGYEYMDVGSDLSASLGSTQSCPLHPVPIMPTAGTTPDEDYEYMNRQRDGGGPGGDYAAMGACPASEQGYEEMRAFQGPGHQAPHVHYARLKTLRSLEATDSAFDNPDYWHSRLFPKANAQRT
Sequence of HER3^I-II V110A (P21860 20-329 V110A): as the sequence (P21860 20-329 N44A) above, with A25N, V91A counted along it

As to B1, the binding result is given as “no binding” in experiment [1], “no binding” in experiment [2] and “no binding (tested: 1:1 molar ratio)” in the experiment with HER3^I-IV E64A [3]. In addition, the Kd in experiment [4] amounted to 1.9 nM; in [5], 2.3 nM.
In the case of B2, in experiment [6], the “fold lower binding affinity than HER3-ECD^I-IV” value amounted to 30 fold.
Turning to B3, the Kd came to 68 nM in experiment [7]; 63 nM in the experiment with HER3^I-II E43A; 15.4 nM with HER3^I-II V110A; 95.5 nM with HER3^I-II N44A; 63 nM with HER3^I-II K51A; 60.5 nM in the experiment with HER3^I-II V66A. Further, the koff in experiment [7] came to 0.00727 s⁻¹. The kon in [7] was 107000 M⁻¹ s⁻¹. For the same molecule, the binding result with HER3^I-IV E64A [8] was “no binding”.
Consider B4, for which the “fold decrease in binding affinity (against HER3^I-II)” value in experiment [9] was 1.5 fold.
B5: the “fold increase in binding affinity (against HER3^I-II)” value in experiment [9] was determined as 4 fold; in experiment [10] it was 5 fold.
